Earlier results as cited in paper PMC12023029.

Molecular target: His50 (UniProt position 50, KEGVVHGVATV)
Test: NMR (per title of cited reference 59)
Details: free monomer, disordered

For “alpha-synuclein (aSyn) (Homo sapiens (inferred; the article does not name the species and discusses Parkinson's disease patients))”, the pKa (150 mM salt, high salt) is listed as 6.5 and the pKa (low salt, article gives '4' mM as the lower end of the salt change) is listed as 6.8.
